Assay results as given in the supplement of paper PMC9170038.

Test system: MS2 coat protein
Test: apparent KD of MS2 coat protein; designed switch direction (-1 OFF switch, 1 ON switch): -1; higher = weaker reporter binding
Procedure, shortened: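 On Illumina chips, designed RNA switches with common flanks were made by stalled E. coli RNA polymerase. Titrations with SNAP-549-labelled MS2 coat protein, doubling from 0.7 or 1.5 nM to 3 µM, were done with no input, with 200 uM small-molecule ligand, or with an oligonucleotide input. Apparent KD is the median per design over clusters, from curve fits of normalised cluster fluorescence.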

[1] = input ligand: microRNA oligo, concentration not stated
[2] = Eterna round: R95, input ligand: microRNA oligo, concentration not stated
[3] = Eterna round: R95, input ligand: FMN 200 uM
[4] = Eterna round: R95, input ligand: none

Sequence	apparent KD of MS2 coat protein (input ligand: FMN 200 uM)	apparent KD of MS2 coat protein (input ligand: none)	apparent KD of MS2 coat protein [1]	apparent KD of MS2 coat protein [2]	apparent KD of MS2 coat protein [3]	apparent KD of MS2 coat protein [4]
GUCCCACAUGAGGAUCACCCAUGUGAGGAUAUGGUUUCGCUGGCCGUAGCCAGUGGAACCAGAAGGCGCGUGAU [Mat - Exclusion 1 - JL Mod - D17] (Eterna round: R97, puzzle: Exclusion 1)	75 nM	74.7 nM				
CUGAGUAGUCAGGAUAUGUGGUACAAAAGUACUGCAGAAGGGAUUACAUGAGGAUCACCCAUGUUAUCUUCAUG [Omei Ex6 B19] (Eterna round: R97, puzzle: Exclusion 6)	368 nM	144 nM				
UUUUUAUAUGAAGGAUAUACUUAACAUGAGGAUCACCCAUGUGGUGUUGUGAGUGAGUGAGUUUAGUAGAAGGUCAAGUAUUCU [JMF's solution 40] (Eterna round: R96, puzzle: Exclusion NG 2)	575 nM	496 nM	306 nM			
UGAGCAUCAGGAUAUACAAGGCGACCGUGAGGUCGAGGGUUACAUGAGGAUCACCCAUGUAGAAGGGAUGUUCU [jl-ex2-4.09] (Eterna round: R97, puzzle: Exclusion 2)	196 nM	43.4 nM				
CCCAGUUAGAGAGGAUAUCGUACAUGAGGAUCACCCAUGUAAUAAAUGAGGAUUUCGGGUGUCUACGAGAAGGCUCGGAUAGGC [Ostracism 30 - Jieux - Exclusion NG 2] (Eterna round: R96, puzzle: Exclusion NG 2)	75.8 nM	35.9 nM	27.1 nM			
CAGCUGAAUGUGAGGAUAUGUCGAGCGAUAGCUCGAUAGAAGGCACAUGAGGAUCACCCAUGUCUCAACAGCUG [BmEx4/2-C4] (Eterna round: R97, puzzle: Brourd's mod of Exclusion 4)	349 nM	28.3 nM				
GCCCAGCUAGGAUAUCGCACUGCAGACAUGAGGAUCACCCAUGUGAUGAGGUCUGAAUCCCGAGAAGGAGCAUGGA [Enlain] (puzzle: Exclusion 5)				15.8 nM		
GUGUGCAGAGGAUAUACAGAGGAAAAUAAUAAAUAAUAUUGACAUGAGGAUCACCCAUGUAGAAGGCUGAGUGU [Excluse me!! 25 - Jieux - Exclusion 2] (puzzle: Exclusion 2)				37.4 nM	38.3 nM	39.7 nM
GCACGGUUGCUAGGAUAUCCUUGCGAUUAGCAAGGAGAAGGAGCACAUGAGGAUCACCCAUGUACCUCAAUAAUCCUUCCGUGC [Eli exng1 - 028] (Eterna round: R96, puzzle: Exclusion NG 1)	12.9 nM	15.6 nM	13.2 nM			
CAAAGUUGGUAAGGAUAUCCUACAUUAUUCUGACCCGUGCAAGCUACAUGAGGAUCACCCAUGUGGGAGAAGGUGCGUUAAAGU [Design 3] (Eterna round: R96, puzzle: Exclusion NG 2)	23.4 nM	21.7 nM	17.4 nM			
AAAAAGACAGGAUAUACAUGAGGAUCACCCAUGUGAAACAAAAUAAAAUAAAAUAAAAGUAGAAGGGUCAAAAA [Exclusion 3 #2] (puzzle: Exclusion 3)				31.9 nM	33.8 nM	31.7 nM
UCGCUCCGUGUAGGAUAUCGUUGUAUUCUGCGGCGAGAAGGACAUGAGGAUCACCCAUGUAUGUUAUUAUCACGCGUGGCGCAA [Design 67] (Eterna round: R96, puzzle: Exclusion NG 1)			13.9 nM			
UUGGUUGUGGUAGGAUAUCCGUUGGAAACCGUCGGAGAAGGACCACAGUCACUGGGUCCUUGUCUGGUGGACUGGAAUCACCAU [pwkr exNG1 F6.15] (Eterna round: R96, puzzle: Exclusion NG 1)	153 nM	184 nM	172 nM			
GGAUCACAUGUCAGGAUAUGCAGGUCCUUGGAUCUGCAGAAGGGACAUGAGGAUCACCCAUGUCAUGAAGAUCC [Mat - Exclusion 4 - Eli Mod - D51] (Eterna round: R97, puzzle: Brourd's mod of Exclusion 4)	945 nM	145 nM				
AGUACUAACACGAAAGUGUUAGUACAAUAAGCUUGUGAAACAUGAGGAUCACCCAUGUCCUCAUAAGCUCGUCUUAA [salish99_TOv2_r3_002] (puzzle: Sensor v3, turn-off variant 2)				379 nM	12.9 nM	10.8 nM
GAUUAUGCGAGCUUUAGGGACAUGAGGAUCACCCAUGUUCGUCUUAUUAAUCUAGGUACGCUGACAUACCUAAAUCU [JMF 98] (puzzle: Sensor v3, turn-off variant 1)				30 nM	21.6 nM	20.6 nM
AGAUGCUCGAGUCGACAUGAGGAUCACCCAUGUACAGUUAGUGAGGAUAUCGGAGACACAUAGUAUGAGAAGGCGCGAACGUGA [Ex NG3 #15] (Eterna round: R96, puzzle: Exclusion NG 3)	224 nM	97.8 nM	52.1 nM			
GUGCAGCGAGGAUAUCCAGACGGGUCCAGUACGUGUCUUGGACUUGAGGAUCACCCAAGUAGAAGGCGUCUCAG [salish99_ex2_r4_611] (Eterna round: R97, puzzle: Exclusion 2)	50.9 nM	114 nM				
UGCAGACGAGGAUAUAAACGAUAUAACAUGAGGAUCACCCAUGUACGAUCGAAUGAUCGUUUAGAAGGCGUCUGCA [E5/10-A1] (Eterna round: R97, puzzle: Exclusion 5)	16.6 nM	15.7 nM				
UUGUUAUAUGUAGGAUAUGCAUAUUAUUAUUGUGCAGAAGGACAUGAGGAUCACCCAUGUAUAUUAUUAUUAUAUAUUAUAUAU [Title] (Eterna round: R96, puzzle: Exclusion NG 1)			26.1 nM			
AAAGAACAUGAGGAUCACCCAUGUGAGGAUAUGCGAAAACCGCUAACAAACCAGACGGGCAGAAGGCAUAUGGU [Leistequ] (puzzle: Exclusion 1)				39.1 nM	68.9 nM	63.7 nM
AUCGUGCAGCUUUGCUGUACGAGUACAUGAGGAUCACCCAUGUAGGAUAUGGUACGCUUUGCGUGCCAGAAGGACGUGCGUUAG [salish99_ExNG3_r04_003] (Eterna round: R96, puzzle: Exclusion NG 3)	63.2 nM	43.7 nM	34.3 nM			
UCAUACGGUGAGGAUAUCUCCGCUAAAGUGUGUAGAGAAGGCGCUACAUGAGGAUCACCCAUGUUUAUGGGCAG [Ex-6 Malc#12] (Eterna round: R96, puzzle: Exclusion 6)			271 nM			
GUCAUGUAAGGAUAUCUUACAUGUGACUUCGGUCACUGUCAAGAGAAGGUACAUGAGGAUCACCCAUGUUCGAC [Ex4-3: 52] (Eterna round: R96, puzzle: Exclusion 4)	26.4 nM	21 nM	19.2 nM			
GUUAAACAUGAGGAUCACCCAUGUAAGGAUAUGCUGCGGUAGAGAUGAAGUGAAUGCAGCAGAAGGUACAAUUG [Mat - Mod of JL D54] (puzzle: Exclusion 1)				80.5 nM		
